This passage reports normalised SPOT signal, Boehringer light units (BLU); mean over the file's lines of this peptide results from paper PMC314469, “Protein Interaction Networks by Proteome Peptide Scanning” (PLoS Biology, 2004).

The target of assay [1] is amphyphisin SH3 (AMPH_HUMAN) (UniProt P49418). In words: SPOT array.
In assay [2] the target is endophilin SH3 (SH3G2_HUMAN) (UniProt Q99962). The experiment in a line: SPOT array.

As to P46781 11-24, the normalised SPOT signal, Boehringer light units (BLU); mean over the file's lines of this peptide was 245 in assay [1] and 269 in assay [2].
